“And” between values parts separate entries of the source, which are not always exact repeats. Equal entries are not always repeated.
Legend:
[1] = biological target: soluble synaptotoxic Aβ in aqueous human AD brain extract (human, UniProt P05067 18-701); assay: cell-based or functional assay
[2] = biological target: T1, monomeric Aβ (UniProt P05067 672-713); assay: binding profile column of Table 5
T1 construct: also called Aβ monomer; Aβ1-40 monomer and/or Aβ1-42 monomer

[3] = biological target: T2, synthetic Aβ protofibrils (Aβ1-42-derived protofibrils) (UniProt P05067 672-713); assay: binding profile column of Table 5
T2 construct: domain: Aβ1-42; Multimeric assembly; also called PF; PFs

[4] = biological target: T3, synthetic Aβ-derived diffusible ligands (ADDLs) (UniProt P05067 672-713); assay: binding profile column of Table 5
T3 construct: domain: Aβ1-42; Oligomeric assembly; also called synthetic Aβ oligomers
T3 sequence (P05067 672-713 limits assumed): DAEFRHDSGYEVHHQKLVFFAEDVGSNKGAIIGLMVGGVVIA

Sequence of soluble synaptotoxic Aβ in aqueous human AD brain extract (P05067 18-701): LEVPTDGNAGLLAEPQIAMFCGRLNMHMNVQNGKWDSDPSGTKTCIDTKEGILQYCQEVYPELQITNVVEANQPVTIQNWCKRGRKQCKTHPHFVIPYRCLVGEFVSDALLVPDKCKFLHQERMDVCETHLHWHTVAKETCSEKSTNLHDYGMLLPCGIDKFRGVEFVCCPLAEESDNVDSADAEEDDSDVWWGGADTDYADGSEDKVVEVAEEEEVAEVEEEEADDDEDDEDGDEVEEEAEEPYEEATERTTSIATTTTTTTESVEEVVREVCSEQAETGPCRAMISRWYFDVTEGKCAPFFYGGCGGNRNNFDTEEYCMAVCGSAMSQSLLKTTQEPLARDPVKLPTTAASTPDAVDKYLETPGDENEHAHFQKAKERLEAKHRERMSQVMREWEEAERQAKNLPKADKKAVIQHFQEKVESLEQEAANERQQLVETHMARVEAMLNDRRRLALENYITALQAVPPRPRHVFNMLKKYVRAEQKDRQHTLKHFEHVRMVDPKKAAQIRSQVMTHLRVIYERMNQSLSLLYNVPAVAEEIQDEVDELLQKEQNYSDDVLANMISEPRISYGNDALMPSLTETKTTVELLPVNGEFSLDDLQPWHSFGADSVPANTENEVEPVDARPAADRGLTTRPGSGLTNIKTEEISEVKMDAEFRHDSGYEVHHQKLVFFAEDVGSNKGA
T1 sequence (P05067 672-713): as the sequence (P05067 672-713 limits assumed) above
T2 sequence (P05067 672-713 limits assumed): as above

B1: rC11 (recombinant C11, human IgG1 LALA) (antibody, V domains shown)
VH: QVQLQESGPGLVKPSETLSLTCTVSGGSISSYYWSWIRQPPGKGLEWIGSIYYSGTTKYNPSLKSRVTISVGTSKNQFSLKLNSVTAADTAVYYCARDNWGSRFDYWGQGTLVTVSS
VL: DIQMTQSPSSLSASVGDRVTITCRASQGIRNDLGWYQQKPGKAPTLLIYAASSLQSGVPSRFSGSGSGTDFTLTISSLQPEDFATYYCLQDFNYPYTFGQGTKLEIKR
With B1 the “EC50 of neuritotoxicity protection, iN cellular assay, Mean” value (shortened to “EC50 of neuritotoxicity protection … Mean”) [1] was 2.79 µg/mL, the “EC50 of neuritotoxicity protection, iN cellular assay, Run16” value [1] was 3.58 µg/mL and 2.19 µg/mL and the “EC50 of neuritotoxicity protection, iN cellular assay, Run17” value [1] was 2.58 µg/mL.

B2: C11 (hybridoma-purified mAb) (antibody, V domains shown)
VH: B1 VH
VL: DIQMTQSPSSLSASVGDRVTITCRASQGIRNDLGWYQQKPGKAPTLLIYAASSLQSGVPSRFSGSGSGTDFTLTISSLQPEDFATYYCLQDFNYPYTFGQGTKLEIK
notes: Purified from a Trianni mouse hybridoma (FusC); also called purified clone C11
B2: no binding [2]; no binding [3]; no binding [4].

B3: C10 (hybridoma-purified mAb) (antibody, V domains shown)
VH: B1 VH
VL: B2 VL
notes: also called purified clone C10
B3: no binding [2]; no binding [3]; no binding [4].

B4: rB28 (recombinant B28, human IgG1 LALA) (antibody, V domains shown)
VH: QVQLVESGGGVVQPGRSVRLSCAATGFTFSSYGMHWVRQAPGKGLEWVAVIWFDGSNEYYADSVRGRFTISRDNSKNTLYLQMNSLRAEDTAVYYCARRGRVGVTRNYYYYNMDVWGQGTTVTVSS
VL: AIQMTQSPSSLSASVGDRVTITCRASQGIRNDLGWFQQKPGKAPKLLIYPASSLQSGVPSRFSGSGSDTDFTLTISSLQPEDFATYYCLQDYNFPFTFGPGTKVDIKR
B4 was tested, and the “EC50 of neuritotoxicity protection … Mean” value [1] was 1.53 µg/mL, the “EC50 of neuritotoxicity protection, iN cellular assay, Run11” value [1] was 1.76 µg/mL and the “EC50 of neuritotoxicity protection, iN cellular assay, Run12” value [1] was 1.34 µg/mL. For the same binder, the “EC50 of neuritotoxicity protection, iN cellular assay, Run13” value [1] was 1.5 µg/mL.

B5: B75 (hybridoma-purified mAb) (antibody, V domains shown)
VH: QVQLVESGGGVVQPGRSLRLSCAASGFTFSSYGMHWVRQAPGKGLEWVAVIWYDGSYKYYADSVKGRFTISRDNSKNTLYLQMNSLRVEDTAVYYCAREGRTYYDFLTGYFDFWGQGTLVTVSS
VL: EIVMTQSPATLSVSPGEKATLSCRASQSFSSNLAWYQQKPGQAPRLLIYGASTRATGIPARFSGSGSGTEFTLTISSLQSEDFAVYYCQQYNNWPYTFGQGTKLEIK
B5 was tested, and the “EC50 of neuritotoxicity protection … Mean” value [1] was 2.05 µg/mL and the “EC50 of neuritotoxicity protection, iN cellular assay, Run13” value [1] was 2.05 µg/mL.

B6: rB75 (recombinant B75, human IgG1 LALA) (antibody, V domains shown)
VH: B5 VH
VL: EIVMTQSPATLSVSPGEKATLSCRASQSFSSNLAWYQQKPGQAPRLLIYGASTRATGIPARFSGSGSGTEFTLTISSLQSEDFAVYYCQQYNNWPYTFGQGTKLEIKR
With B6 the “EC50 of neuritotoxicity protection … Mean” value [1] was 4.08 µg/mL, the “EC50 of neuritotoxicity protection, iN cellular assay, Run15” value [1] was 2.11 µg/mL and the “EC50 of neuritotoxicity protection, iN cellular assay, Run16” value [1] was 6.04 µg/mL.

B7: rB73 (recombinant B73, human IgG1 LALA) (antibody, V domains shown)
VH: QLQLQMSGPGLVKPSETLSLTCTVSGGSISSSSYYWGWIRQSPGKGLEWIGSIYYSGRTYYNPSLKSRVTISVDTSKNQFSLKLSSVTAADTAMYYCARRSSGRPYYWGQGTLVTVSS
VL: QAVVTQESALTTSPGGTVILTCRSSTGAVTTSNYANWVQEKPDHLFTGLIGETNNRAPGVPVRFSGSLIGDKAALTITGAQTEDDAMYFCALWYSTHWVFGGGTKLTVLG
For B7, the “EC50 of neuritotoxicity protection … Mean” value [1] was 1.94 µg/mL, the “EC50 of neuritotoxicity protection, iN cellular assay, Run10” value [1] was 1.98 µg/mL and the “EC50 of neuritotoxicity protection, iN cellular assay, Run11” value [1] was 1.97 µg/mL. The “EC50 of neuritotoxicity protection, iN cellular assay, Run12” value [1] was 1.49 µg/mL and the “EC50 of neuritotoxicity protection, iN cellular assay, Run14” value [1] was 2.32 µg/mL.

B8: rB24 (recombinant B24, human IgG1 LALA) (antibody, V domains shown)
VH: EVQLLESGGGLVQPGGSLRLSCAASGFTFSSYAMTWVRQAPGEGLEWVSTISGSGIRTYYADSVKGRFTISRDNSKNTMYLQMNSLRAEDTAVYYCAKDGLTGDRRWYFDLWGRGTLVTVSS
VL: EIVMTQSPATLSLSPGERATLSCRASQSVSSSYFSWYQQKPGQAPRLLIYGASTRATGIPARFSGSGSGTDFTLTISSLQPEDFAVYYCQQDSNLPLTFGGGTKVEIKR
In the case of B8, the “EC50 of neuritotoxicity protection … Mean” value [1] is reported as 3.97 µg/mL, the “EC50 of neuritotoxicity protection, iN cellular assay, Run15” value [1] is reported as 2.53 µg/mL and the “EC50 of neuritotoxicity protection, iN cellular assay, Run17” value [1] is reported as 5.4 µg/mL.
